{
  "source": "patent US20190161753",
  "proteins": {"B1": {"name": "Pyrococcus furiosus Cmr2 protein, wild type (PF1129) (protein)", "chain": "MVNIKEKLFVYLHDPPDKALKIENHEERSKKILSSGNIQYSRTDKVKQADALSSKTQRFIIRTKENKEPVIDFLGRSSGKYFHVGYPVFIHPISTEIKRYETLEKYIDLGRSNRGERFVNEFLERVSKLEGDVLKEVFEDASNKFKGEESKQWAYIWQFYPVKLKEGVKEFAKSELKLKEEEAEKFAEEFVNLPADTRFPDHAIWTHLDLTSALSVKDPTLLRIKIVPVQPFIANSRKQLDLWASSHLLSMLMYKALEVIVDKFGPEHVIYPSLRDQPFFLKFYLGENIGDEILVANLPNKALAIVSGKEAEKIEEEIKKRIRDFLLQLYREAVDWAVENGVVKVDRSEKDSMLKEAYLKIVREYFTVSITWVSLSEKEDIYQVTENAGLSDEDVKKWLKFAEKKENSRVLERIAIYPLLVKILDSLGERKVTEERFEKSEQLKGWKCHVCGENLAIFGDMYDHDNLKSLWLDEEPLCPMCLIKRYYPVWIRSKTGQKIRFESVVDVALLYKNWRKIFDEKYGKDLVSKAREVSEDFVKDNMLVDSDLYYSSTWESGLSKKLKNKKEIDEEKVKEVVDFLNAAYKEIGNPPKYYAILVMDGDDMGKVISGEVLGEISTRIHPNIRDYVEIPEAKYYSTPQVHVAISQALANFSIREVRSVVKDEGLLIYAGGDDVLAILPVDKALEVAYKIRKEFGKSFENGSLLPGWKLSAGILIVHYKHPLYDALEKARDLLNNKAKNVPGKDTLAIGLLKRSGSYYISLVGWELIRVFYNSELRKKLLEEKGGVGKRFIYHVLREVDTWPKVGIDEMLKFEVIRHIRGRNKEETKELREKIYGEIKDLLEHVRGNNEVEKVRGLFTFLKIITDAEVFP"}},
  "biological_target": "T1, The other proteins of the P. furiosus Cmr effector complex (Cmr1, Cmr3, Cmr4, Cmr5, Cmr6, with crRNA)",
  "T1 chain 1": "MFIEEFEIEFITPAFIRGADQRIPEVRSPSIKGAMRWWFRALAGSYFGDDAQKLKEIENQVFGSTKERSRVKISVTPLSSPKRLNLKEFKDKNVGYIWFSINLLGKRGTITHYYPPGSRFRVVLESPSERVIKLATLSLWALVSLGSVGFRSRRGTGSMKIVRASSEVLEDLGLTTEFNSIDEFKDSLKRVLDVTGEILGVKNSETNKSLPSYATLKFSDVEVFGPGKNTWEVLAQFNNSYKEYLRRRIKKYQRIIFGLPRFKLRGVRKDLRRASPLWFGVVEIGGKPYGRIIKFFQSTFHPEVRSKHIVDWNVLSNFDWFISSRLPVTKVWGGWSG",
  "T1 chain 2": "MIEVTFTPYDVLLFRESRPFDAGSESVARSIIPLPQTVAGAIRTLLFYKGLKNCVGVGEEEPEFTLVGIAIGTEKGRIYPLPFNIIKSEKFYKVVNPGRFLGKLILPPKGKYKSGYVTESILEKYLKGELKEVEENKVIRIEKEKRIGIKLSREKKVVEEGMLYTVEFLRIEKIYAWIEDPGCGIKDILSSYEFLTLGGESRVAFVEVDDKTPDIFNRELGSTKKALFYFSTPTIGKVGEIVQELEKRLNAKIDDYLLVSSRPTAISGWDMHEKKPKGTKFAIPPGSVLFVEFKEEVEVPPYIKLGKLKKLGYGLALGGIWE",
  "T1 chain 3": "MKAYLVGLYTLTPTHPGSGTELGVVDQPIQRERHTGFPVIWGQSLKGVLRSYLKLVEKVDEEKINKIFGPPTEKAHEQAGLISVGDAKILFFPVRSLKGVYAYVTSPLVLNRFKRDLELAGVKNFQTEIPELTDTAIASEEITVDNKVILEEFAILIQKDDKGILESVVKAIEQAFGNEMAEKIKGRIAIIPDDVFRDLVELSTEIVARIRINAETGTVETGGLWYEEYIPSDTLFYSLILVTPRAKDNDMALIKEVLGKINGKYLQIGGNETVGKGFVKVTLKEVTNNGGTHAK",
  "T1 chain 4": "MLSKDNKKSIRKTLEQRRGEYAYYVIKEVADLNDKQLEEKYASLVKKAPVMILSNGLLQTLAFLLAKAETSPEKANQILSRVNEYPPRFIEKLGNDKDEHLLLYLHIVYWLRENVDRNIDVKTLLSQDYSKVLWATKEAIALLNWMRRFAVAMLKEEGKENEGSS",
  "T1 chain 5": "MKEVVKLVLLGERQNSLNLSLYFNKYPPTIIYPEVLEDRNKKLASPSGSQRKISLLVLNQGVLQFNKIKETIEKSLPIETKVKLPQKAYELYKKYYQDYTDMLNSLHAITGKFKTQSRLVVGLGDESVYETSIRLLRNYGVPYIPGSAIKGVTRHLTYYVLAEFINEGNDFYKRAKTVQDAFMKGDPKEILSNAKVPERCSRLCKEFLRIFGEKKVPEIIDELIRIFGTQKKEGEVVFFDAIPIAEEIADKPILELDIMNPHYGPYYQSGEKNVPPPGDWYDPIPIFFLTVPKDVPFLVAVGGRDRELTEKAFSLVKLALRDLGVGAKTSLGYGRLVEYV",
  "data": [
    {"protein": "B1", "values": [
      {"measurement": "ssDNA nuclease activity (cleavage of 5' radiolabeled ssDNA oligo, denaturing PAGE)", "value": "The reconstituted Cmr complex (including Cmr1-6 and crRNA) displays very little ssDNA nuclease activity in comparison with approximately equimolar concentrations of Cmr2 alone"}
    ]}
  ]
}
